Experimental data as given in patent US20240115720A1, “ANTIBODY-PYRROLOBENZODIAZEPINE DERIVATIVE CONJUGATE” (MEMORIAL SLOAN KETTERING CANCER CENTER, priority 2021, published 2024).

Tests used:
[1] = test system: DLL3-positive human small cell lung cancer cell line NCI-H82; assay: In vivo antitumor effect, NCI-H82 xenograft (Example 22-3); conditions: nude mice, 0.4 mg/kg intravenous, single dose, FIG. 28
Source text: (§1) Substantially the same protocol as in Example 17 was used.
(§2) The DLL3-positive human small cell lung cancer cell line NCI-H82 (ATCC) was suspended in Matrigel (Corning Inc.), and the cell suspension was subcutaneously inoculated at a dose of 1×10^6 cells to the right flank region of each female nude mouse. After the tumors were established, the mice were randomly grouped (6 mice per group). On the day of grouping, each of the 2 antibody-drug conjugates (H2-C8-A-3-Conjugate, H10-O18-A-3-Conjugate), the reference anti-DLL3 antibody-Conjugate (SC16LD6.5) or anti-LPS antibody-Conjugate was intravenously administered at a dose of 0.4 mg/kg to the tail of each mouse. The abscissa depicts the days after administration, and the ordinate depicts estimated tumor volume. The error range depicts a SE value.

[2] = test system: DLL3-positive human small cell lung cancer cell line NCI-H510A; assay: In vivo antitumor effect, NCI-H510A xenograft (Example 22-1); conditions: nude mice, 0.2 mg/kg intravenous, single dose, FIG. 26
Source text: as §1
as §2, with “NCI-H510A” for “NCI-H82”, “2.3×10^6” for “1×10^6”, “(SC16LD6.5),” for “(SC16LD6.5)”, “0.2” for “0.4”

[3] = test system: DLL3-positive human small cell lung cancer cell line NCI-H510A; assay: In vivo antitumor effect, NCI-H510A xenograft (Example 17-3); conditions: BALB/c nude mice, 0.2 mg/kg intravenous, single dose on Day 15, FIG. 21
Protocol: The antitumor effects of the antibody-drug conjugates were evaluated using animal models derived from immunodeficient mice by the inoculation of DLL3-positive human tumor cell line cells. 4- to 5-week-old BALB/c nude mice (CAnN. Cg-Foxn1 [nu]/CrlCrlj [Foxn1nu/Foxn1nu], Charles River Laboratories Japan inc.) were acclimatized for 3 days or longer under SPF conditions before use in the experiment. The mice were fed with a sterilized solid diet (FR-2, Funabashi Farms Co., Ltd) and given sterilized tap water (which had been prepared by adding a 5 to 15 ppm sodium hypochlorite solution to tap water). The long diameter and short diameter of the inoculated tumor were measured twice a week using electronic digital calipers (CD-15CX, Mitutoyo Corp.), and the volume of the tumor was then calculated according to the following expression.
Tumor volume (mm^3=½×Long diameter (mm)×[Short diameter (mm)]^2
Each antibody-drug conjugate was diluted with ABS buffer (10 mM acetate buffer, 5% sorbitol, pH 5.5) (Nacalai Tesque, Inc.), and the dilution was intravenously administered at a dose shown in each study to the tail of each mouse. ABS buffer was administered in the same manner as above to a control group (vehicle group). Six mice per group were used in the experiment. The group with the over 3000 mm^3 estimated tumor volume were euthanized at that time. […]

B1: SC16LD6.5: anti-DLL3 ADC: antibody hSC16.56 (SC16) conjugated with drug linker SG3249 by maleimide conjugation (conjugate, chains of the INN, looked up)
VH: QVQLVQSGAEVKKPGASVKVSCKASGYTFTNYGMNWVRQAPGQGLEWMGWINTYTGEPTYADDFKGRVTMTTDTSTSTAYMELRSLRSDDTAVYYCARIGDSSPSDYWGQGTLVTVSS
VL: EIVMTQSPATLSVSPGERATLSCKASQSVSNDVVWYQQKPGQAPRLLIYYASNRYTGIPARFSGSGSGTEFTLTISSLQSEDFAVYYCQQDYTSPWTFGQGTKLEIK
modifications: SG3249 PBD drug-linker (tesirine)
notes: anti-DLL3 ADC: antibody hSC16.56 (SC16) conjugated with drug linker SG3249 by maleimide conjugation
- antitumor effect (estimated tumor volume) [1]: some tumor growth inhibition without tumor regression effect
- antitumor effect (estimated tumor volume) [2]: some tumor growth inhibition without tumor regression effect
- antitumor effect (estimated tumor volume) [3]: some tumor growth inhibition without tumor regression effect
